The record followed here is US20190352335A1, “BRAIN TARGETING LONG-ACTING PROTEIN CONJUGATE” (HANMI PHARM. CO., LTD., priority 2016, published 2019).

The nature of this series: In vitro specific enzyme activity of idursulfase conjugate (4MU fluorescence). The format is biochemical. The note with it: substrate 4MU-α-idopyraA-2, 37° C. 4 hours, then α-iduronidase 37° C. 24 hours; FIG. 5. The protocol: To examine the presence of any change in specific activity of idursulfase according to the preparation of idursulfase-10 K PEG-Fc-BTP22 conjugate, an in vitro experiment for specific activity of enzymes was performed, 4-Methylumbelliferyl α-L-idopyranosiduronic acid-2-sulfate sodium salt (4MU-α-idopyraA-2), which is known as an enzyme substrate for idursulfase, was reacted with idursulfase β and IDS-Fc-BTP22 at 37° C. for 4 hours, and then, reacted with α-iduronidase, which is a secondary reaction enzyme, at 37° C. for 24 hours. The enzyme activity of 4-methylumbelliferone (4 MU), the final product, was measured by the measurement of the fluorescence of the corresponding substance (FIG. 5).
In particular, the values of enzyme activity were calculated in terms of specific activity per converted rate of weight (μg).

B1: idursulfase (protein, UniProt P22304 34-455; P22304 456-550, looked up)
Iduronate 2-sulfatase 42 kDa …: TDALNVLLIIVDDLRPSLGCYGDKLVRSPNIDQLASHSLLFQNAFAQQAVCAPSRVSFLTGRRPDTTRLYDFNSYWRVHAGNFSTIPQYFKENGYVTMSVGKVFHPGISSNHTDDSPYSWSFPPYHPSSEKYENTKTCRGPDGELHANLLCPVDVLDVPEGTLPDKQSTEQAIQLLEKMKTSASPFFLAVGYHKPHIPFRYPKEFQKLYPLENITLAPDPEVPDGLPPVAYNPWMDIRQREDVQALNISVPYGPIPVDFQRKIRQSYFASVSYLDTQVGRLLSALDDLQLANSTIIAFTSDHGWALGEHGEWAKYSNFDVATHVPLIFYVPGRTASLPEAGEKLFPYLDPFDSASQLMEPGRQSMDLVELVSLFPTLAGLAGLQVPPRCPVPSFHVELCREGKNLLKHFRFRDLEEDPYLPG
Iduronate 2-sulfatase 14 kDa …: NPRELIAYSQYPRPSDIPQWNSDKPSLKDIKIMGYSIRTIDYRYTVWVGFNPDEFLANFSDIHAGELYFVDSDPLQDHNMYNDSQGGDLFQLLMP
notes: purified type of iduronate-2-sulfatase (Shire, Ireland), approximately 72 kDa
In turn, B1 registered an enzyme activity (specific activity per weight of idursulfase part) of 23.4 ± 1.94 nmol/min/µg.
